# Legend:
# [1] = biological target: Dynamic microtubules, coverslip-anchored (grown from GMPCPP-stabilized seeds with unpolymerized tubulin) (bovine) (UniProt Q6B856); experiment: optical trap force clamp (detachment of kinetochore-decorated beads from microtubule tips); low density of kinetochores on anti-His beads (Dsn1:bead ratio 200); coverslip-anchored dynamic microtubules; 5 pN; 3 nM Dam1c and ATP in the buffer; 0.5 μM AurB*-KD flowed in
# [2] = biological target: Dynamic microtubules, coverslip-anchored (grown from GMPCPP-stabilized seeds with unpolymerized tubulin) (bovine) (UniProt Q6B856); experiment: optical trap force clamp (detachment of kinetochore-decorated beads from microtubule tips); high density of kinetochores on anti-His beads (Dsn1:bead ratio 3,300); coverslip-anchored dynamic microtubules; ~1 pN; 3 nM Dam1c and ATP in the buffer; 0.5 μM active AurB* flowed in
# [3] = biological target: Dynamic microtubules, coverslip-anchored (grown from GMPCPP-stabilized seeds with unpolymerized tubulin) (bovine) (UniProt Q6B856); experiment: optical trap force clamp (detachment of kinetochore-decorated beads from microtubule tips); low density of kinetochores on anti-His beads (Dsn1:bead ratio 200); coverslip-anchored dynamic microtubules; 1.5 pN; 3 nM Dam1c and ATP in the buffer; 0.5 μM AurB*-KD flowed in
# [4] = biological target: Dynamic microtubules, coverslip-anchored (grown from GMPCPP-stabilized seeds with unpolymerized tubulin) (bovine) (UniProt Q6B856); experiment: optical trap force clamp (detachment of kinetochore-decorated beads from microtubule tips); low density of kinetochores on anti-His beads (Dsn1:bead ratio 200); coverslip-anchored dynamic microtubules; 1.5 pN; 3 nM Dam1c and ATP in the buffer; 0.5 μM active AurB* flowed in
# [5] = biological target: Dynamic microtubules, coverslip-anchored (grown from GMPCPP-stabilized seeds with unpolymerized tubulin) (bovine) (UniProt Q6B856); experiment: optical trap force clamp (detachment of kinetochore-decorated beads from microtubule tips); high density of kinetochores on anti-His beads (Dsn1:bead ratio 3,300); coverslip-anchored dynamic microtubules; ~1 pN; 3 nM Dam1c and ATP in the buffer; 5 μM AurB*-KD flowed in
# [6] = biological target: Dynamic microtubules, coverslip-anchored (grown from GMPCPP-stabilized seeds with unpolymerized tubulin) (bovine) (UniProt Q6B856); experiment: optical trap force clamp (detachment of kinetochore-decorated beads from microtubule tips); low density of kinetochores on anti-His beads (Dsn1:bead ratio 200); coverslip-anchored dynamic microtubules; 5 pN; 3 nM Dam1c and ATP in the buffer; 0.5 μM active AurB* flowed in
# [7] = biological target: Dynamic microtubules, coverslip-anchored (grown from GMPCPP-stabilized seeds with unpolymerized tubulin) (bovine) (UniProt Q6B856); experiment: optical trap force clamp (detachment of kinetochore-decorated beads from microtubule tips); high density of kinetochores on anti-His beads (Dsn1:bead ratio 3,300); coverslip-anchored dynamic microtubules; ~1 pN; 3 nM Dam1c and ATP in the buffer; 5 μM active AurB* flowed in
# [8] = biological target: tubulin (microtubules); experiment: optical trap tip-attachment detachment rate
# [9] = reference: 5 µM AurB*-KD flowed in
# Sequence of UniProt Q6B856 (Q6B856 whole entry, looked up): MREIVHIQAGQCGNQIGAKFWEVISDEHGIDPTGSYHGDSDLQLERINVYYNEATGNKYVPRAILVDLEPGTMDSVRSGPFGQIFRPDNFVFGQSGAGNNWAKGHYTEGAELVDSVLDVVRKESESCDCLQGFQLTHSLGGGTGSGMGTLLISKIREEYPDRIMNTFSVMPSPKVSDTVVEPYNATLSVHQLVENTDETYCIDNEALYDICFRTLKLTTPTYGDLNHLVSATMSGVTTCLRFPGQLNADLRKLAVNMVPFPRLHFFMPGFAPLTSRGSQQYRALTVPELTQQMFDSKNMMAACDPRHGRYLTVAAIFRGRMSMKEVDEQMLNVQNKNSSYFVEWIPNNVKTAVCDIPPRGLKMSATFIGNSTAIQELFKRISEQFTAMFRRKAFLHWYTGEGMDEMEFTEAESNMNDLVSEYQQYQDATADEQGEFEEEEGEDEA
detachment rate [1] [h⁻¹],detachment rate [2] [h⁻¹],detachment rate [3] [h⁻¹],detachment rate [4] [h⁻¹],detachment rate [5] [h⁻¹],detachment rate [6] [h⁻¹],detachment rate [7] [h⁻¹],other: detachment rate ([8]; reference: 0.5 µM AurB*-KD flowed in),"other: detachment rate [8, 9]",Substance
7,4.6,10.4,28.9,2.3,7,7.2,–,–,Mps1-1 kinetochores (native kinetochores purified from budding yeast strain SBY8726) (from UniProt P40568 1-576; P40460 1-691; P53148 1-917) (complex)
–,–,–,–,–,–,–,weaker; reference 10.4 ± 3.3,weaker; reference 2.3 ± 0.9,Ndc80 (from UniProt P40460) 0.5 µM AurB* flowed in
–,–,–,–,–,–,–,–,weaker; reference 2.3 ± 0.9,Ndc80 (from UniProt P40460) 5 µM AurB* flowed in
